# Data published in the DeepSol protein solubility set.
# Assay: soluble on expression in E. coli; label from the status in PepcDB or PDB records
row,Sequence,soluble on expression in E. coli
1,TWTYILRQGDLPPGEMQRYEGGPEPVMVCNVDGEFFAVQDTCTHGDWALSDGYLDGDIVECTLHFGKFCVRTGKVKALPACKPIKVFPIKVEGDEVHVDLDNGELK,soluble
2,MENAKMNSLIAQYPLVKDLVALKETTWFNPGTTSLAEGLPYVGLTEQDVQDAHARLSRFAPYLAKAFPETAATGGIIESELVAIPAMQKRLEKEYQQPISGQLLLKKDSHLPISGSIKARGGIYEVLAHAEKLALEAGLLTLDDDYSKLLSPEFKQFFSQYSIAVGSTGNLGLSIGIMSARIGFKVTVHMSADARAWKKAKLRSHGVTVVEYEQDYGVAVEEGRKAAQSDPNCFFIDDENSRTLFLGYSVAGQRLKAQFAQQGRIVDADNPLFVYLPCGVGGGPGGVAFGLKLAFGDHVHCFFAEPTHSPCMLLGVHTGLHDQISVQDIGIDNLTAADGLAVGRASGFVGRAMERLLDGFYTLSDQTMYDMLGWLAQEEGIRLEPSALAGMAGPQRVCASVSYQQMHGFSAEQLRNTTHLVWATGGGMVPEEEMNQYLAKGR,soluble
3,AMNLIFLGTSAGVPTRTRNVTAILLNLQHPTQSGLWLFDCGEGTQHQLLHTAFNPGKLDKIFISHLHGDHLFGLPGLLCSRSMSGIIQPLTIYGPQGIREFVETALRISGSWTDYPLEIVEIGAGEILDDGLRKVTAYPLEHPLECYGYRIEEHDAPGALNAQALKAAGVPPGPLFQELKAGKTITLEDGRQINGADYLAAPVPGKALAIFGDTGPCDAALDLAKGVDVMVHEATLDITMEAKANSRGHSSTRQAATLAREAGVGKLIITHVSSRYDDKGCQHLLRECRSIFPATELANDFTVFNV,soluble
4,MIKLKTPNSMEIAEQPAVITYVPELNAFRGKFLGLSGYCDFVSDSIQGLQKEGELSLREYLEDCKAAGIEPYARTEKIKTFTLRYPESLSERLNNAAAQQQVSVNTYIIETLNERLNHL,not soluble
5,NEHSKWMILDRVRFTLDGLECDKIGVGYEAYRNQPNFCSAPYGSCLGNQLWNFWEYDKRRIDNSQLPLYIVEGRFQRINQHPNAGAHTFSVGVTEDLNTNLLIELMADDIEYVYQRSPAKIIDIRVPTFEALSQVGIANVTTKNIGKLESSYSLTFKCSSGISPVEEQLYTMKPDEVIARSFELRSTTDQAAMHQCEAILKASDFSELDREGYRFSTAATVYNNGAQIGPTNDHKKGGFWDSIKALWRNLIDFLTGRLCWTKCPRLFDFGCHI,not soluble
6,MATAATTASRSTTAGTSSTMGTPATTSAASRTTTTGTTTTMGQLIT,not soluble
7,MGSDKIHHHHHHACDNSDRIETETQANGVLLNFNASTIDATTTETRSFVPIEGFAKNEYIFGMSVTKDNASRGEIFEGSRNLKATMSRPSGDAPWNWEFSNNASGTVVTPRGPEGKPLRVIAYYPAIAGTENFTDGIPFDFTQTNNPQQKEILYNTNTSYTIPSSGGSDKVTIPLKFQHAYSWISIKVTKSVDKGSHKLSGVSIDNLSGGWIKNKGKINPATGMAMQGAIQGPIGEVRTAEVLDPSGDTATPIIYDFLVPAFMDRNVKDDDLVFTLIIDGKKEIFSLGREHLNNDGDTYGFKQGYVNTYNVEFNNSSLNMRLLNWTSTRIDGDFGQNVTNPTNYQEMSFYYAEDNGGWTTANGKVFPPKYKDLPAGDRRYYNYLTTVKYGGNGEYVPAKPVTDPPPPKGIIIEDDANVATQEPACRLFQMTTKDVSIEPVPWEDEMGQLVAKELCRKYNGGGFKDWRLPRASELRALLVYAIYGAGTKQFINLKLTNDVNREKLYWTGTEESEDKAWAMLYYDDNTLVGRGPNISAQDKSTRLSVRCIRQLQ,not soluble
8,MMVEVRFFGPIKEENFFIKANDLKELRAILQEKEGLKEWLGVCAIALNDHLIDNLNTPLKDGDVISLLPPVCGG,not soluble
9,MGSDKIHHHHHHMDGSSQEGEKKKKVYEVKTFPISFALGENQENITITTQTPSKPSKEKKFHKARMLHKQGKIAEAKKYYQQLINEGFNDHRVFSNYGVILAQLGKLKEAEISTRKAIEMQPNYAEAHSNLGIILNDLGKLEEAEICQRKAIKIKPNLTGAAWNLYGLANTIKEAEERVNQVLKIDENHVEAQLHLSALKLHQGDQSLFDNLTKSTHKDHAITRSIKWVANLPKLPELFFYRWALFDSMTKKSKKDRPFYEFGVWRGASFRYLINTFKKGYGFDTFEGLPEDWHHEAQGTYSAEGIIPNIEGGEFIAGKFEDTLPTFYSKPRPMASIINFDADLYSSTLCALNCSKPVIDKDTILIFDEFIISENWEQDEYKALNEFCSKNNLTYEVLAVSYFEKQVAVKLIGV,not soluble
10,METPLVSIVSICWNRKDEICESLNNIRKIDYESLEIIVVDNGSTDGTVEKIEEDFKEVKLIKMPKNAGIEAYNVGFKSAAGEYIVILDDDSFPEKNSIKRMVKKFQKDDKLGMVAFDVRNYYNYDEVKKIDTEETSNDTAAESDEYIMAFNGAGAGVRTEVLKKAGFYPEEFFLYWNEQDTAFRILDMGYKIKFFADVIAYHKYSPKNRASWRAPFYYTRNAFFLVWKNYSTKAALKKTIELIYDCFYYSMEQKTNIYLKAMWNAFMNFNKIKGKRKVVDKYIEENLRIPLNVSFTFYKLEHHHHHH,not soluble
11,MGSDKIHHHHHHMRTLFSQQQWIDMKVLVTGATSGLGRNAVEFLCQKGISVRATGRNEAMGKLLEKMGAEFVPADLTELVSSQAKVMLAGIDTLWHCSSFTSPWGTQQAFDLANVRATRRLGEWAVAWGVRNFIHISSPSLYFDYHHHRDIKEDFRPHRFANEFARSKAASEEVINMLSQANPQTRFTILRPQSLFGPHDKVFIPRLAHMMHHYGSILLPHGGSALVDMTYYENAVHAMWLASQEACDKLPSGRVYNITNGEHRTLRSIVQKLIDELNIDCRIRSVPYPMLDMIARSMERLGRKSAKEPPLTHYGVSKLNFDFTLDITRAQEELGYQPVITLDEGIEKTAAWLRDHGKLPR,not soluble
12,MMMEIEDDEVPSPPSPHPAGTTIGGPNSKRYSDILSLDYCTFRIPYEELNIRFRNGQKDLDRAATGVAKAAELLQKKTAGSNEPVSRESLRRHFDLLIRQVQEARKTVERITQSEIEQLDKITTRADRIHEEFEVTRDSENPRNTEKLERQKFCRFIVWHMLRCGYIEPAKVLVKEMELEDLVDVDVFENMYAVQQALLDGNIQPCLAWCDRHHRKLRKLESRIELVARQQEAVTLIELGNIPEAVAYVKKYIAPIAKGKFTEDLKKTMGAIACTLEQSRLRNPELHAADRYQKCAALFIEEAHRIFEIHGNTALATLIQYGLATQKTPSCHNDEKTPLDKQKCIVCRPDVWPIAENLPYSHVANSRIFCSLSGKLCDDDKNIPFLFPSGHVIGSAAIERLKRDDNKLYDPIHKKLIDEEEALRLYFL,not soluble
13,MSKKFVNKAEEAVDDALFGLVSSNSNVKFHKSCRRVVHITDLNPSHHVSLIAGGGSGHEPYAAGYVGKGLLTAAIAGNVFASPPSRNVQAALEATRGEAGAILFVINYTGDRLNFGLAAERFNASGGTARVVTIADDVAIDSPNSKVGRRGLAGAVLTIKIAGAMAWEGKSLDEIYETSQKVVSSMGTLGVSLYTGSLPGKNRETELPDDQIEVGLGIHGEPGKFRAQFGSANRIVHSLLDTLRSKMEMREGEKFVVLVNNLGSVSQLEMNIVNGEVLRYFEDHKIGITRFFSGIYMTSLDGHGVSVTILRADDSMLQYLDAPAAAPGWIPALSVQKCVDHQEISDSSSQGDLISEIPASGVTVNAQLVEACVGGVVDAMLESEKHLNQLDAYAGDGDCGSTFAGAAEAIRKQTSGLNYTHPETLLKQLSIIFEQTVGGTSGALYALMFSSAAQSFAQRSQRGEKIDRTSILEALDKANRAVQKYGGARVGDRTMVDGLDAMVEELRKGFSGNEESLDAIFEAAVKASEKAAKATASQTATVGRASYTSSEAQTKPDAGATAISLWLRACWTAYKSEK,not soluble
14,MEDKVDVLIIGGGASGVTSGIQSARMGANTLILEESTWLGGMLTSAGVSAVDGNYRLPAGLWGEFKNRLSDYYGGLDSLKTGWVSNVLFEPSVGNKILHEMVAAENNLKVWKQACLEEVKRTGDEWVAKVKVEGQGVKTVRAKVMIDATELGDVAKMCGVKYDIGLEHHHHHH,soluble
15,MTNSSSSKKQAQDQPETSEPTLKSLKTKMTKSDEKQKKLKDIEISVPIVYGNVAFWLGKKASEYQSHKWAVYVRGATNEDISVVVKKVVFQLHSSFNSPTRVIEEPPFEVSESGWGEFEIAMTLHFHSDVCDKPLSLYHHLKLYPEDESGPLTMKKPVVVESYDEIVFPDPSESFLARVQNHPALTFPRLPSGYNLPAPMQVEDTGKKKRGDTKDHSLGQWFMSFSEADELLQLAAARQQVQAHIAKLRRQISLLEGQNQTVKTGSDL,not soluble
16,MGSDKIHHHHHHMTAPRELTAETRCGSSMDSSPPTATDDINSADIALRVSALSKTYRIYGRSQDRLLQGLWGNRKQLYREFRALDSISFEIRRGETFGIIGPNGSGKSTLLQLIAGTLTPTQGEIYIKGKVSALLELGAGFNGEFTGRENIRMAASIAGLNPGEIGQRHECIAAYADIGDFLDQPVKTYSSGMYVRLAFAVAISVEPEVLIIDEALAVGDMEFQAKCMVTLKQMQERGTTILFVSHDVGAVSALCKRTLYLKHGRALEIGPTPDVVARYIREVQEANNRKINVTVSENNDSRTTSPSDASETGIAPSHRTASLTSAEAASGAASGFLTAASPFRSVEKKHLARFAENANHCRSGTGDVRVIYAEMTDDEGLPVRSAEFGQSVLIRIIVEAARTCTFSVNYKICDKNRTPVIGADFLMQRQALLTLEPSQQAEALYRTSLPLTDGRYSLRISLTHPVNAHQQALFFDIVEIAHVFEVLPNPTAKFWTQVYLPNTLDVRVLE,not soluble
17,YCKTIPMPDLAYSEISVIGKLIRALPEPCALHLANSSTVRYAQLFTVPPQVEICCNRGVNGIEGSLSTAIGYAAASSKLNFIIIGDLSFFYDMNALWNQNYGANIRILLLNNEGGEIFHTLPGMDKSSRSREFITAEHYTTAKGWAEERGFIYMKVTGEEELEEAMQPFTSPETRMQPMLLEVFTDKEKDTTLLREYYHGLKNKNE,not soluble
18,MAVLGLQGVRGGVGTTTITAALAWSLQMLGENVLVVDACPDNLLRLSFNVDFTHRQGWARAMLDGQDWRDAGLRYTSQLDLLPFGQLSIEEQENPQHWQTRLSDICSGLQQLKASGRYQWILIDLPRDASQITHQLLSLCEHSLAIVNVDANCHIRLHQQALPDGAHILINDFRIGSQVQDDIYQLWLQSQRRLLPMLIHRDEAMAECLAAKQPVGEYRSDALAAEEILTLANWCLLNYSGLKTPVGSAS,not soluble
19,MLDFEKPLFEIRNKIDSLKESQEKNEVDLQDEIDMLEASLKRETTKVYTNLKPWDRVQIARLPERPTTLDYIPYIFDSFIELHGDRSFRDDPAMIGGIGYLDGKSVTVIGQQRGKDTKDNIYRNFGMAHPEGYRKALRLMKQAEKFNR,not soluble
20,MGSDKIHHHHHHMLAICQLVKMKRICFYLKMQKGYMALNKKLKGDGEVLKDSFLAGAGKAKIVFSQDDFPIKQFTGIHDNLYIRVLLIDSNQRFAFVSIDLTSLTKDRIDFYKSLIHQLTSIDEGNIWVSVTHTFSAPHIPLESQKDDEEKIISMMLFKTSAALREAINQALLSMKPADIGFSYSSCPLNINRNIPTRLGWWLGRNDDGYSNHDVRTVTLKQENNEIISILYNFDVQASVMDNVSTKSGELLISSDLVGKASSDIENTFGKNSVAIFLPGSAGDQAPIFKGSNWKIMKNNRLVCSSIHEEAYSLVDQLGVKLSQSVQRAVFKTEKFADNCEIKINHYSVYLPEQRVKYSTKALRPSKKYQFEKPVIHFLSLLIFCT,not soluble
